Source: article PMC10368747, “Zinc-finger BED domains drive the formation of the active Hermes transpososome by asymmetric DNA binding”
Values joined by “and” are separate entries in the source; they are usually repeats but may differ in a detail not shown here. Equal entries are not always repeated. One block for each molecule: values may come before it.

Assays:
[1] = molecular target: full-length Hermes transposase (with the mutations Q2E and K128G) (Musca domestica) (UniProt Q25442); assay: SEC + other: mass photometry; purified Hermes transposase alone, dialysed against 25 mM HEPES.Na pH 7.5, 0.3 mM TCEP with 0.5, 0.25 or 0.15 M NaCl; Superose 6 SEC; mass photometry at 50, 65 and 30 nM; higher salt favours the octamer, lower salt the hexamer
[2] = molecular target: full-length Hermes transposase (with the mutations Q2E and K128G) (Musca domestica) (UniProt Q25442); assay: cryo-EM structure; LE-LE transpososome: Hermes with 8 + LE-TIR + 30 DNA, 8:2 protein-to-DNA, 150 mM NaCl, 25 mM HEPES.Na pH 7.5, purified by SEC
[3] = molecular target: full-length Hermes transposase (with the mutations Q2E and K128G) (Musca domestica) (UniProt Q25442); assay: mass photometry; Hermes (10 µM) mixed with 2.5, 5 or 10 µM left-end DNAs, dialysed to 150 mM NaCl, 25 mM HEPES.Na pH 7.5, 0.3 mM TCEP, diluted 50 and 100 times; composition by subtracting the mass of the hexamer or octamer
[4] = molecular target: full-length Hermes transposase (with the mutations Q2E and K128G) (Musca domestica) (UniProt Q25442); assay: cryo-EM structure; RE-RE transpososome: Hermes with 8 + RE-TIR + 30 DNA, 8:2 protein-to-DNA, 150 mM NaCl, 25 mM HEPES.Na pH 7.5, purified by SEC
[5] = molecular target: full-length Hermes transposase (with the mutations Q2E and K128G) (Musca domestica) (UniProt Q25442); assay: cryo-EM structure; LE-LE transpososome: Hermes with 8 + LE-TIR + 30 DNA, 8:2 protein-to-DNA, 150 mM NaCl, 25 mM HEPES.Na pH 7.5, purified by SEC; remark: listed apart in the source
[6] = molecular target: T1, Hermes BED domain (Musca domestica, UniProt Q25442 1-78); assay: EMSA; two BED per DNA, cooperative; 0.5 uM ran17 competitor; value assigned by the peer review file; BED EMSA: 25 mM HEPES.Na pH 7.5, 150 mM NaCl, 0.3 mM TCEP, 1 uM DNA, 0.5 uM ran17, 0-10 uM BED, 1 h 4 C then 15 min RT; 15% PAGE 0.5X TBE; Hermes SEC at 150 mM; conditions: protein: recombinant; tags: untagged; label: 5'-6FAM top strand (EMSA, 10% of the DNA); blunt
T1 sequence: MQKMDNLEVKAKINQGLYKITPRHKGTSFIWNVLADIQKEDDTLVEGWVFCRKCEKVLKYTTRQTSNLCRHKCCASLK

[7] = molecular target: T1, Hermes BED domain; assay: EMSA; one BED per DNA; Kd in Fig. 6c is 1.7 or 2.8 uM, assignment not resolvable from text; BED EMSA: 25 mM HEPES.Na pH 7.5, 150 mM NaCl, 0.3 mM TCEP, 1 uM DNA, 0.5 uM ran17, 0-10 uM BED, 1 h 4 C then 15 min RT; 15% PAGE 0.5X TBE; Hermes SEC at 150 mM; conditions: protein: recombinant; tags: untagged; label: 5'-6FAM top strand (EMSA); blunt

stoichiometry N [1]: 6 monomers and 8 monomers | stoichiometry N [2]: 6 | stoichiometry N [3]: 6 and 8 | stoichiometry N [4]: 8 | stoichiometry N [5]: 8
Molecule: full-length Hermes transposase (with the mutations Q2E and K128G) (from UniProt Q25442 1-612) (enzyme)

B1: LE11-27 (dsDNA)
DNA 1: CAACAAGTGGCTTATTT
DNA 2: AAATAAGCCACTTGTTG
Kd [6]: 2500 ± 200 nM

B2: LE11-27mut (dsDNA)
DNA 1: CAACAAGTGTTTTATTT
DNA 2: AAATAAAACACTTGTTG
binding result [7]: binds
